Reference: US20240352090A1, “USE OF PROTEIN SEQUENCE CAPABLE OF BINDING TO SUBSTRATE IN PREPARATION OF PRODUCT FOR INHIBITING FIBRIN ASSEMBLY” (NANJING UNIVERSITY, priority 2021, published 2024)

T1: fibrin (Homo sapiens, UniProt P02671)
T1 construct: Thrombin cleaves the α and γ subunits of fibrin, exposing fibrinopeptide A (Knob A) and fibrinopeptide B (Knob B)
T1 sequence (P02671 36-866 limits assumed): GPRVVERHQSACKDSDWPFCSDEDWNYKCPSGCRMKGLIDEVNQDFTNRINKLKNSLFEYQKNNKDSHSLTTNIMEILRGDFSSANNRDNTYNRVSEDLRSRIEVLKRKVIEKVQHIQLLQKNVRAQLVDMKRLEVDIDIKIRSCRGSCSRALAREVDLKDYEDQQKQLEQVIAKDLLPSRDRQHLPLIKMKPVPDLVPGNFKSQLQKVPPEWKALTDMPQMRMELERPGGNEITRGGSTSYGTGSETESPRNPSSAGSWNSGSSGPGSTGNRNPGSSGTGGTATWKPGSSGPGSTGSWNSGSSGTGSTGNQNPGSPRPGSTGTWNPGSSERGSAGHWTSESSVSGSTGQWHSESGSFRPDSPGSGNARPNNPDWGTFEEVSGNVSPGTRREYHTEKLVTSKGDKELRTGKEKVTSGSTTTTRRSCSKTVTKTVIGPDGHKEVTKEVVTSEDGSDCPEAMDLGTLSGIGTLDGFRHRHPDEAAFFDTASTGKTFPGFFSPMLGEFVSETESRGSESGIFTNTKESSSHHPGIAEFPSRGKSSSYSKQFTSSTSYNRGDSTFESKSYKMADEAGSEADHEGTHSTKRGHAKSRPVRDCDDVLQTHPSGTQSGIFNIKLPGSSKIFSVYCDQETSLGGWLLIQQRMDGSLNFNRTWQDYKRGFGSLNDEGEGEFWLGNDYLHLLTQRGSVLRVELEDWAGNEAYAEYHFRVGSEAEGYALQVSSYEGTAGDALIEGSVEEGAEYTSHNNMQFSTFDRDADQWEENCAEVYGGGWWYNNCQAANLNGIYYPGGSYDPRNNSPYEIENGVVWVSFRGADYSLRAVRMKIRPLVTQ
T1 sequence (P02675 45-491 partner limits assumed): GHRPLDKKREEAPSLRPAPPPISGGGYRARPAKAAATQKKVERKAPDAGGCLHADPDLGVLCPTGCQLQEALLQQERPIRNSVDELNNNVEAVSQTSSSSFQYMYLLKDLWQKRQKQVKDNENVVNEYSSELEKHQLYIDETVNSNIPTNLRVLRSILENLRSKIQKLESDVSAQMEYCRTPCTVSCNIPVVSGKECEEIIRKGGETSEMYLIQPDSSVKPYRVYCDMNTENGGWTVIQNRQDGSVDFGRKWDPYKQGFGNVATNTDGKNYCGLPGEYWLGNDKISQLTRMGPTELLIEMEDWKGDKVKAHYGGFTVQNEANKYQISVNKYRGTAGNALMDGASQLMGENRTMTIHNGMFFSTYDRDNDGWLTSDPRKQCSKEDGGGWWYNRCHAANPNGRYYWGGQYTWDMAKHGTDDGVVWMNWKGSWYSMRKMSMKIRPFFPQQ
T1 sequence (P02679 27-453 partner): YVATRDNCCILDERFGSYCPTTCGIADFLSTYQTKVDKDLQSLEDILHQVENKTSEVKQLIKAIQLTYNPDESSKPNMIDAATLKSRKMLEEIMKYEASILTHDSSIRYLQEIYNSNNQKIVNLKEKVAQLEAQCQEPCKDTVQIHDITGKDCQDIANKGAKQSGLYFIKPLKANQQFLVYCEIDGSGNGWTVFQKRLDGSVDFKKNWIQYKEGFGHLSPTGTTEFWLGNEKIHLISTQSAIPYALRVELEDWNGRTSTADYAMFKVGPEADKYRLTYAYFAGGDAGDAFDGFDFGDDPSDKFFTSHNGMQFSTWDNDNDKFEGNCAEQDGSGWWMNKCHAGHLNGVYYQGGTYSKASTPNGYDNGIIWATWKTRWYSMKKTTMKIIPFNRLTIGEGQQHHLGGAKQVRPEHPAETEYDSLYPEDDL

T2: fibrin aggregates (Homo sapiens, UniProt P02671)
T2 construct: Thrombin cleaves the α and γ subunits of fibrin, exposing fibrinopeptide A (Knob A) and fibrinopeptide B (Knob B)
T2 sequence (P02671 36-866 limits assumed): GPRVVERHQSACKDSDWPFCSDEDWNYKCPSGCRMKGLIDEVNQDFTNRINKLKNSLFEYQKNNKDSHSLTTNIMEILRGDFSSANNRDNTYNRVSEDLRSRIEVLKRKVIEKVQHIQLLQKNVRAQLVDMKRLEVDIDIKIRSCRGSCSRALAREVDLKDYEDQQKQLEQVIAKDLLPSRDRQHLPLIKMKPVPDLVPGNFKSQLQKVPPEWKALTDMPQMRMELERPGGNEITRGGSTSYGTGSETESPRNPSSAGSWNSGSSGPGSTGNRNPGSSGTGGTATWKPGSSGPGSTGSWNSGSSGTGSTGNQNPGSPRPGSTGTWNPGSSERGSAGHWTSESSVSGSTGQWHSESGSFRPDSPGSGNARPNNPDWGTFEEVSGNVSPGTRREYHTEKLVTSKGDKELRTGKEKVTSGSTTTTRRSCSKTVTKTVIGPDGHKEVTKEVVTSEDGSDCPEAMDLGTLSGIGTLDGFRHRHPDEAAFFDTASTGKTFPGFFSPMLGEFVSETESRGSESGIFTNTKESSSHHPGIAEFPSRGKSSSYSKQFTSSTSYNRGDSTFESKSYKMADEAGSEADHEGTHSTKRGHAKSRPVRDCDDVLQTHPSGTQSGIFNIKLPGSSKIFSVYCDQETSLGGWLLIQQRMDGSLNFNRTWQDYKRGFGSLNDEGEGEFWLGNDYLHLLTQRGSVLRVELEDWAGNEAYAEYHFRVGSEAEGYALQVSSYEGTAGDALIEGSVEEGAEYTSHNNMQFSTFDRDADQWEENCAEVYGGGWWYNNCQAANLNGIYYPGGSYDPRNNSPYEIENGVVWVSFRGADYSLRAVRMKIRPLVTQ
T2 sequence (P02675 45-491 partner limits assumed): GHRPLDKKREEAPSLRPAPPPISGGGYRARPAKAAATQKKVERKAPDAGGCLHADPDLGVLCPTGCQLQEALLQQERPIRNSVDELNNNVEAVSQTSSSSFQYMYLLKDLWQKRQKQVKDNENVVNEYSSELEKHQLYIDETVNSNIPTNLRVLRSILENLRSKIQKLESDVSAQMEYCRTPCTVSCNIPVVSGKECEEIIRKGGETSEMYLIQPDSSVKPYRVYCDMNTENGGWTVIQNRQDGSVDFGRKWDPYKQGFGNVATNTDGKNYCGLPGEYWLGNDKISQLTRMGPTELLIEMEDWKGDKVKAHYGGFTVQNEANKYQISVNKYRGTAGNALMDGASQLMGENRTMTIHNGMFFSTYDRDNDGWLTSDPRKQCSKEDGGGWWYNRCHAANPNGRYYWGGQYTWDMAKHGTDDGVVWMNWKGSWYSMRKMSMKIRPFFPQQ
T2 sequence (P02679 27-453 partner): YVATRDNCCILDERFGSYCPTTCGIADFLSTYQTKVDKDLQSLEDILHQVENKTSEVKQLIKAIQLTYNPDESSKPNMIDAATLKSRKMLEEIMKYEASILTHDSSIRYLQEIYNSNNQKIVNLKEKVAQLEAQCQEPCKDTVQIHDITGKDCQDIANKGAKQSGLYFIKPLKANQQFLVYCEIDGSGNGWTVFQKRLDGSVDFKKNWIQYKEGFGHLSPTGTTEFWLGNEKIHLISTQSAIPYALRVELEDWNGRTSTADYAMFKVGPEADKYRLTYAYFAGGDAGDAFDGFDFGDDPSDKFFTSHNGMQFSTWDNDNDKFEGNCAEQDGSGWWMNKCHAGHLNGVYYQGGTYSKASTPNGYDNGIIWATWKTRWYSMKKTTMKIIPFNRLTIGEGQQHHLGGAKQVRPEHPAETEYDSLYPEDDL


How the values were obtained:
[1] = target: T1, fibrin; assay: fibrin aggregation, light scattering / A350 kinetic curve; type: biochemical; conditions: 3.3 μM Fibrinogen, 2.5 U/ml thrombin, ±5 mM CaCl2, 25° C., different doses
Description: Multifunctional enzyme marker M200PRO detected the light scattering process, and the instrument excitation light was adjusted to 350 nm and emission light to 350 nm. 3.3 μM of Fibrinogen in the control group, 3.3 μM of Fibrinogen and 2.5 U/ml of thrombin in the model group and 3.3 μM of Fibrinogen and 2.5 U/ml thrombin and different dose of Fibrinogen related protein 1 (FGL1). All the above systems were in 20 mM Tris-HCl, pH 7.4, 150 mM NaCl±5 mM CaCl2 solution in a 100 μl/well (96-well plate). The kinetic curve was measured by assaying every minute at 25° C.
Multifunctional enzyme marker M200PRO detected the light scattering process; the instrument excitation light was adjusted to 350 nm, and the emission light was adjusted to 350 nm. 3.3 μM of Fibrinogen in the control group, 3.3 μM of Fibrinogen and 2.5 U/ml of thrombin in the model group, and 3.3 μM of Fibrinogen and 2.5 U/ml thrombin and different dose of fibrinogen structural domain (FD). The above systems were in 20 mM Tris-HCl, pH 7.4, 150 mM NaCl±5 mM CaCl2 solution. The kinetic curves were measured at 25° C. by detecting the A350 absorption values every minute.

[2] = tested on: thrombin-induced thrombosis model; assay: thrombin-induced thrombosis model, plasmid injection and overexpression; type: in vivo, BALB/c mice; conditions: expression plasmid 100 μg per mouse tail vein, overexpression; thrombin 15 U per mouse; deaths within 1 hour
Description: Construct FGL1 expression plasmid with pcDNA3.1 vector, inject the plasmid into the tail vein of mice, 100 μg/2 ml PBS/per mouse, extract the plasma of the mice after 18 hours, and detect the overexpressed FGL1 content in the plasma by ELISA;
Thrombin 15 U/200 μl PBS/per mouse was injected into the tail vein for modelling, and the number of mice in each group that died within 1 hour after injection was recorded to calculate the protection rate of Fibrinogen like protein 1 (FGL1) overexpression.
The specific operation methods were the same as those described previously for the protective effects of overexpression of FGL1.

[3] = target: T2, fibrin aggregates; assay: synergistic dissolving of fibrin aggregates with tissue plasminogen activator tPA; type: biochemical; conditions: 2 nM tPA plus different doses, added after 1 h of fibrin formation
Description: The Multifunctional enzyme marker M200PRO detected the light scattering process, and the excitation light of the instrument was adjusted to 350 nm and the emission light to 350 nm. 3.3 μM of Fibrinogen in the control group, 3.3 μM of Fibrinogen and 2.5 U/ml of thrombin in the model group. The above systems were all set up in 20 mM Tris-HCl, pH 7.4, 150 mM NaCl ±[…] CaCl2 solution in a 100 μl/well (96-well plate). After 1 h of gel-like fibrin formation, 100 μl, 2 nM tissue plasminogen activator tPA and different doses of Fibrinogen like protein 1 (FGL1) were added. Kinetic curves were measured at 25° C. by detecting A350 absorption values every minute.
The control group was a reagent control, and the administered groups were 2 nM tissue plasminogen activator tPA, different doses of Fibrinogen like protein 1 (FGL1) alone groups, and groups in combination with other reagents. Kinetic curves were measured at 37° C. using a multifunctional enzyme marker M200PRO to detect the absorption values of the 510 nm excitation light every minute.
The Multifunctional enzyme marker M200PRO detected the light scattering process, and the excitation light of the instrument was adjusted to 350 nm and the emission light to 350 nm. […] Kinetic curves were measured at 25° C. by detecting A350 absorption values every minute. […]

[4] = target: T2, fibrin aggregates; assay: synergistic dissolving of fibrin aggregates with urokinase uPA; type: biochemical
[5] = target: T1, fibrin; assay: fibrin aggregation observed by scanning electron microscopy; type: biochemical; conditions: FIG. 12
[6] = tested on: mouse thrombus; assay: mouse thrombus morphology observed by scanning electron microscopy; type: in vivo, mice; conditions: FIG. 14
[7] = tested on: aggregated fibrin; assay: cleavage of aggregated fibrin; type: biochemical; conditions: FIG. 27
Source text: Mutation of certain key sites in this protein's amino acid sequence can also enhance its function of inhibiting thrombosis.

| Molecule | effect on fibrin aggregation [1] | survival rate of mice [2] | dissolving fibrin aggregates together with tPA [3] | dissolving fibrin aggregates together with urokinase uPA ([4]; 800 U/ml uPA plus different doses of FGL1) | structure of thrombus formed by fibrin aggregation [5] | morphology of mouse thrombus [6] | dissolving fibrin aggregates together with urokinase uPA ([4]; 2800 U/ml uPA plus different doses of FD (800 U/ml in thrombus lysis)) | cleavage of aggregated fibrin, mutant compared to unmutated form [7] |
| --- | --- | --- | --- | --- | --- | --- | --- | --- |
| FGL1: Fibrinogen like protein 1, amino acid sequence SEQ ID No. 1, expressed in eukaryotic cells; given as pcDNA3.1 expression plasmid in Example 6 | inhibits fibrin aggregation | significantly increasing the survival rate of mice | synergistically dissolving fibrin aggregates | synergistically dissolving fibrin aggregates | – | – | – | – |
| FD: Fibrinogen structural domain protein of FGL1, positions 48-290 of SEQ ID No. 1 (SEQ ID No. 3) (protein) TVIDLGSKRQYADCSEIFNDGYKLSGFYKIKPLQSPAEFSVYCDMSDGGGWTVIQRRSDGSENFNRGWKDYENGFGNFVQKHGEYWLGNKNLHFLTTQEDYTLKIDLADFEKNSRYAQYKNFKVGDEKNFYELNIGEYSGTAGDSLAGNFHPEVQWWASHQRMKFSTWDRDHDNYEGNCAEEDQSGWWFNRCHSANLNGVYYSGPYTAKTDNGIVWYTWHGWWYSLKSVVMKIRPNDFIPNVI | inhibits fibrin aggregation | significant improvement of survival rate in mice | synergistically dissolving fibrin aggregates | – | becomes thinner and looser in structure | becomes thinner and looser in structure | synergistically dissolving fibrin aggregates | – |
| FD mutant: FD with tryptophan at key positions 204 and 269 mutated to alanine (protein) TVIDLGSKRQYADCSEIFNDGYKLSGFYKIKPLQSPAEFSVYCDMSDGGGWTVIQRRSDGSENFNRGWKDYENGFGNFVQKHGEYWLGNKNLHFLTTQEDYTLKIDLADFEKNSRYAQYKNFKVGDEKNFYELNIGEYSGTAGDSLAGNFHPEVQWAASHQRMKFSTWDRDHDNYEGNCAEEDQSGWWFNRCHSANLNGVYYSGPYTAKTDNGIVWYTWHGAWYSLKSVVMKIRPNDFIPNVI | – | – | – | – | – | – | – | significantly enhanced |
